Assay results from PMC3556779.

Molecular target: FKBP1A (UniProt P62942)
Assay: co-precipitation from transfected Jurkat cells
Details: reference: WT TGFβRI; sites T200

Substance: TGFβRI (from UniProt P36897) T200V TGFβRI
- binding against the reference: stronger
